The values that follow are results of earlier work, collected in paper PMC9313270.

The target of the series is leptin (UniProt P41159). Kind of series: not stated (listed for the qPCR aptasensor, 'This work'). Conditions: leptin binding buffer (composition not given); aptamer-adaptor annealing 15 min at 37 C, leptin incubation 30 min at 37 C, polymerase extension 10 min at 60 C ….
Chain of leptin (P41159 22-167): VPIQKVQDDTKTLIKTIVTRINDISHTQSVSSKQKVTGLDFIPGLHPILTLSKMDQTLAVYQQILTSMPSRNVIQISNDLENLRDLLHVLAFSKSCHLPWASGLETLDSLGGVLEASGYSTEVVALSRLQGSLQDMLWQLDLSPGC

Usually Kd stands for the free concentration of one partner at which half of the binding sites on the other are occupied at equilibrium, for simple one-to-one binding. Consider “GTTAATGGGGGATCTCGCGGCCGTTCTTGTTGCTTATACA [leptin aptamer (Ashley and Li)]”, for which the dissociation constant Kd is 1500 nM.
